According to patent US20030027252A1 (TULARIK, published 2003):
Where no end group is shown, it is not given here.

Legend:
Human TGR342 [1] = biological target: T1, Human TGR342 (human, UniProt Q969V1 1-340); assay: cell-based or functional assay
Human TGR342 [2] = biological target: T1, Human TGR342; assay: [125I]-MCH binding to membranes of HEK293 cells transiently transfected with pEF6/V5-TGR342; specific binding = total minus mock-transfected membranes

T1 sequence (Q969V1 whole entry): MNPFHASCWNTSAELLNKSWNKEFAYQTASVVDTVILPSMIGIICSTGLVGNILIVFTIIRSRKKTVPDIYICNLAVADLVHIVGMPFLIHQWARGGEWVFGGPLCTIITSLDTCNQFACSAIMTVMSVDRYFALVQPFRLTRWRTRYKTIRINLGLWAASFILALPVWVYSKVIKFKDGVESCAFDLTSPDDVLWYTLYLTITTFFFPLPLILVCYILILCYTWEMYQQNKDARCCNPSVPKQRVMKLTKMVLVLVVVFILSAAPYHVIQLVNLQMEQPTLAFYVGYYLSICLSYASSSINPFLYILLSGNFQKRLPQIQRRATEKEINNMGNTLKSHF

Binder | EC50, aequorin luminescence assay (intracellular calcium mobilization), transfected HEK293 cells (Human TGR342 [1]) | Kd (Human TGR342 [2])
DFDMLRCMLGRVYRPCWQV (peptide, UniProt P20382 147-165, looked up, ends and bridges not checked; cysteine pairing not given here) [melanin-concentrating hormone (MCH)] | 2 nM | –
DFDMLRCMLGRVYRPCWQV (peptide, UniProt P20382 147-165, looked up, ends and bridges not checked; also: 125I label, labelled residue not given here, mature) [[^125I]-MCH] | – | 9.6 nM
